Experimental data from US20210403586A1, “MUTANT OF RANKL AND PHARMACEUTICAL COMPOSITION COMPRISING SAME FOR PREVENTING OR TREATING OSTEOPOROSIS” (INDUSTRY-ACADEMIC COOPERATION FOUNDATION CHOSUN UNIVERSITY, priority 2018, published 2021).
Entries after “also recorded” stand apart in the source; their conditions may differ.

B1: wtRANKL: wild-type RANKL (mouse; purified, or from Amgen in Example 2) (protein, UniProt O35235 139-316, looked up)
Tumor necrosis factor ligand …: FSGAPAMMEGSWLDVAQRGKPEAQPFAHLTINAASIPSGSHKVTLSSWYHDRGWAKISNMTLSNGKLRVNQDGFYYLYANICFRHHETSGSVPTDYLQLMVYVVKTSIKIPSSHNLMKGGSTKNWSGNSEFHFYSINVGGFFKLRAGEEISIQVSNPSLLDPDQDATYFGAFKVQDID
B2: sRANKL: soluble RANKL; R&D Systems (protein)
chain: B1 Tumor necrosis factor ligand …

Columns and labels:
[1] = tested on: bone marrow-derived monocytes (BMMs); assay: TRAP analysis of osteoclastogenesis induced by RANKL variants in BMMs; format: cell-based, mouse; conditions: RANKL-treated primary BMM
Procedure: The RANKL-RANK binding sites are K180, D189, R190, H223, H224, which are conserved between humans and mice. We selected 4 mutant RANKLs to be purified. Their size corresponded to the wild type RANKL (39 kDa) (FIG. 2B). Tartrate-resistant acid […] (TRAP) activity was absent for all RANKLs even at 150 ng/mL (FIG. 2C, D).
4-week old male BALB/c mice were purchased from Orient Bio (Gwangju, Korea) and kept in an animal facility approved by the Chosun University Animal Management Committee (IACUC2017-A0002). After obtaining bone marrow cells from mice, bone marrow mononuclear cells were seeded into 96-well plates (1 Y 10^4 cells/well), and in the absence or presence of various concentrations of compounds, incubated with M-CSF (100 ng/mL) overnight before stimulation with RANKL (50 ng/well). The medium was replaced every other days. 6 days later, the cells were fixed with 4% paraformaldehyde, permeated in 0.1% Triton X-100, and washed with PBS. Then, TRAP activity (Sigma-Aldrich, St. Louis, Mo., USA) staining was performed. TRAP-positive multinuclear cells containing 5 or more nuclei were counted as osteoclasts.
To evaluate the effect of mtRANKL on osteoclastogenesis, TRAP analysis was performed on RANKL-treated primary bone marrow-derived macrophages (BMM) by the method described in Reference Example 2, and the results are shown in FIGS. 4B and 4C.

BMMs [2] = assay: F-actin ring formation assay; format: cell-based, mouse; conditions: mRANKL-MT3 150 ng/mL
Procedure: (§1) We used bone-resorption and F-actin ring formation assays to investigate osteoclast activity. To observe bone resorption in vitro, BMMs were cultured in Corning Osteo Assay Surface 96-well Multiple Well Plates (Sigma) with 30 ng/mL M-CSF and 75 ng/mL sRANKL (soluble RANKL; R&D Systems) or isolated RANKL for 6 days. Then, the plates were washed with pure water. To monitor actin ring formation, BMMs were grown on glass slides. After culture, the cells were fixed with 4% formalin, permeabilized with 0.5% Triton X100 in PBS for 5 min at room temperature, and incubated with 0.5 mg/mL TRITC-labelled phalloidin for 30 min. The cells were then rinsed with PBS. F-actin rings were visualized using a fluorescence ECLIPSE Ts2R microscope (Nikon, Tokyo, Japan).

BMMs [3] = assay: Bone-resorption assay (Osteo Assay Surface plates); format: cell-based, mouse; conditions: 6 days, mRANKL-MT3 150 ng/mL
Procedure: as §1

wtRANKL-induced mouse = assay: mtRANKL immunization in wtRANKL-induced osteoporosis mice, micro-CT; format: in vivo
Procedure: (§2) The right femur of each mouse subjected to each experiment was incised and CT imaging was performed using a Quantum GX pCT imaging system (PerkinElmer, Hopkinton, Mass., USA) located at the Korea Basic Science Institute in Gwangju. As for the X-ray source, the field of view was set to 45 mm, 90 kV and […] (voxel size, 90 μm; scanning time, 14 minutes). CT imaging was performed using a Quantum GX 3D Viewer software. After scanning, image segmentation was performed in Analyze (AnalyzeDirect, Overland Park, Kans., USA). Briefly, the legs were segmented using semi-automatic and manual tools (e.g., object extractor, area expansion, and object separator) using volume editing tools. Then, a 3D rendering of the leg was created, and bone mineral density (BMD), bone volume (BV), bone volume percentage (%), and trabecular thickness were calculated using the ROI tools.
(§3) 17-week-old […] BALB/c mice were equally divided into 3 groups. The group was divided into a negative control group in which PBS was intraperitoneally injected, a group in which only wtRANKL was injected, and a group in which wtRANKL was injected after immunization with mtRANKL for 52 days. mtRANKL was injected after mixing with an aluminum hydroxide adjuvant. The immunization process started with 1st immunization of mtRANKL at 52 days, 2nd immunization at 39 days, 3rd immunization at 14 days each before injection of wtRANKL, and a total of 3 immunizations was performed. The amount of mtRANKL was 0.2 mg per mouse.
(§4) After 52 days, PBS was injected into the negative control group and wtRANKL was injected into the other two groups. Next day, wtRANKL was injected once more. wtRANK was subcutaneously injected (2.0 mg/kg). Serum was collected to determine the titer of anti-RANKL antibody. Then, after extracting tibias, the adhesive soft tissues of tibias were removed.
To examine whether RANKL has a bone destruction effect when RANKL was injected after immunization with mtRANKL, micro-CT analysis was performed by the method of Reference Example 6.

RANKL = assay: ELISA of serum RANKL levels; format: in vivo, mouse; conditions: wtRANKL 2.0 mg/kg s.c. to non-immunized mice, or to mice immunized with mtRANKL
Procedure: A commercially available enzyme immunoassay kit (R & D Systems, Minn., USA) was used to measure RANKL levels in the serum of mice according to the manufacturer's protocol. Absorbance (450 nm) was measured in a colorimetric microplate reader (BioTek, Winooski, USA). The reading of the absorbance was then subtracted from the reading at 570 nm.
as §3, §4

RANK and LGR4 signaling [4] = assay: Western blots of RANK and LGR4 signaling pathway proteins, RANKL variants; format: cell-based, mouse; conditions: BMMs, Western blot
Procedure: (§5) Proteins were separated by SDS-PAGE and electropermeated into a nitrocellulose membrane (Bio-Rad). After blocking the membrane with 5% (weight/volume) skim milk in TBST [10 mM Tris (pH 7.5), 150 mM NaCl, 0.1% (vol/vol) Tween 20], each mouse serum for primary antibody in the blocking solution was examined. The membrane was washed three times with Tris buffered saline. […] peroxidase (HRP)-conjugated secondary antibody was diluted 1:5000 with TBST in 1% (wt/vol) skim milk powder. ECL_system (Amersham Pharmacia Biotech) was used as the membrane.
Primary antibodies: AKT (Cell Signaling Technology, 1:1000), phospho-AKT (Cell Signaling Technology, #9271S, 1:1000), p38 (Cell Signaling Technology, 9212S, 1:1000), phospho-p38 (Cell Signaling Technology, #9211S, 1:1000), ERK (Cell Signaling Technology, 9102S, 1:1000), phospho-ERK (Cell Signaling Technology, #9101S, 1:1000), JNK (Cell Signaling Technology, 9252S, 1:1000), phosphoJNK (Cell Signaling Technology, #9251S, 1:1000), GSK-3β (Cell Signaling Technology, 9315S, 1:1000), phosphoGSK-3β (Cell Signaling Technology, #9336S, 1:1000), Src (Cell Signaling Technology, 2108S, 1:1000), phosphoSrc (Cell Signaling Technology, #2105S, 1:1000), NF-KB p65 (Cell Signaling Technology, #3034, 1:1000), phosphop65 (Cell Signaling Technology, #3031, 1:1000), RANK (Cell Signaling Technology, 4845S, 1:1000), Gaq (Cell Signaling Technology, 14373S, 1:1000), LGR4 (MyBioSource, MBS468030, 1:500), 20112360C-1, and GAPDH (Santa-Cruz Biotechnology, 1:2500).
To investigate the interaction of mRANKL variants and RANK, the co-immunoprecipitation (Co-IP) assays were carried out using mRANKL-WT/mRANKL-MT3 and RANK/LGR4 (FIG. 12A). In addition, wild-type RANKL induced MAPK, AKT, NF-κB p65, and GSK-3 phosphorylation, which is involved in LGR4 signaling (FIG. 12B).

BALB/c mice = assay: Bone destruction by injected mtRANKL, micro-CT; format: in vivo, mouse; conditions: subcutaneous 1.0 mg/kg three times a week
Procedure: as §2
To investigate the bone-destructive effect of mtRANKL, 4-week-old male BALB/c mice (Orient Bio) were placed in a cage capable of accommodating up to 4 animals in a light-controlled environment ([…]) and provided with autoclaved water and both whole and powdered rodent diet (Purina, St. Louis, Mo., USA). Starting from 6 weeks of age, 9 mice were randomly divided into three groups, and each group was subcutaneously injected with wild-type RANKL (Amgen, Thousand Oaks, Calif., USA), mtRANKL purified in Reference Example 2, and saline three times a week (1.0 mg/kg). The trabecular bone in femoral neck was examined by Micro-CT analysis described in Reference Example 6.

sRANKL-induced mice = assay: Anti-RANKL IgGs in sRANKL-induced mice; format: in vivo, mouse
isolated spleen cells = assay: Th1/Th2 cytokine secretion of isolated spleen cells; format: cell-based, mouse; conditions: culture supernatant of Sham and IM splenocytes stimulated with sRANKL or mRANKL-MT3
Source text: To determine whether mRANKL-MT3 immunization influences Th1 and Th2 cytokine production, we evaluated the effects of mRANKL-MT3 on IL-4 and IL-10 secretion, which are markers for Th2 responses, and IFN-γ, a marker for Th1 responses, in the culture supernatant of isolated spleen cells stimulated with sRANKL or mRANKL-MT3 (FIG. 8C).

RANK and LGR4 signaling [5] = assay: Anti-RANKL on RANK and LGR4 signaling in BMMs; format: cell-based, mouse; conditions: Western blot, sRANKL
Procedure: as §5, with “membrane. […]” for “membrane.”
We verified that anti-RANKL suppressed RANK and LGR4 signaling in a time-dependent manner (FIG. 13A). […] In addition, NFATc1 nuclear translocation was not detected by Western blot analysis or confocal microscopy in anti-RANKL-treated BMMs in the presence of sRANKL compared with control IgG (FIG. 13B, 13C).

[6] = wtRANKL-injected mice vs mtRANKL-immunized mice with wtRANKL injection

Row | Molecule | number of TRAP-positive multinuclear osteoclasts / osteoclast differentiation [1] | F-actin ring formation (BMMs [2]) | resorption pits (BMMs [3]) | bone volume and percentage of bone volume (wtRANKL-induced mouse; compared with PBS-treated mice) | BMD of tibias (wtRANKL-induced mouse; [6]) | trabecular bone architecture of proximal tibias (micro-CT) (wtRANKL-induced mouse; [6]) | level of RANKL in the blood (ELISA) (RANKL) | GSK-3 phosphorylation (RANK and LGR4 signaling [4]) | MAPK, AKT, and NF-κB p65 phosphorylation (RANK and LGR4 signaling [4]) | BMD, bone volume (BV), percentage (%) of bone volume, and trabecular thickness (BALB/c mice) | trabecular bone by Micro-CT (osteoporosis) (BALB/c mice) | trabecular bone architecture of VOI from the distal femur (micro-CT) (sRANKL-induced mice; sRANKL-induced mice) | BMD, BV/TV, and Tb.N. values (sRANKL-induced mice; sRANKL-induced mice, quantitative micro-CT) | bone histomorphometric analysis and TRAP staining of femur (sRANKL-induced mice; sRANKL-treated mice) | circulating RANKL and CTX-1 levels (sRANKL-induced mice; sRANKL-treated mice sera) | IFN-γ levels (isolated spleen cells) | IL-4 and IL-10 secretion (isolated spleen cells) | MAPK, AKT, src, and GSK-3β phosphorylation (RANK and LGR4 signaling [5])
1 | B1 | significantly higher; also recorded: increased the number of TRAP-positive multinucleated cells | a ring of intracellular F-actin filaments in the sealing zone | numerous resorption pits | decreased | 738.0 ± 19.1 mg/mL | fenestrated trabecular bone and thinner rods forming the trabecular bone | increased | induced | induced | remarkably reduced | mild osteoporosis was observed |  |  |  |  |  |  | 
2 | B2 |  |  |  |  |  |  |  |  |  |  |  | mild osteoporosis | low | an increased number of TRAPpositive osteoclasts | higher | no significant differences | significantly increased | induced
